Publication PMC8517210, “Structural and DNA-binding properties of the cytoplasmic domain of Vibrio cholerae transcription factor ToxR”

Columns and labels:
Details in all cases: protein: recombinant; tags: N-terminal His6; chain copies: 2; none in NMR; blunt
cToxR_1-134 [1] = biological target: T1, cToxR_1-134 (Vibrio cholerae, UniProt P15795 1-134); test: fluorescence anisotropy
cToxR_1-134 [2] = biological target: T1, cToxR_1-134; test: NMR CSP titration; mean as printed; T111 0.15 ± 4e-9, L99 0.63 ± 1e-8
cToxR_1-134 [3] = biological target: T1, cToxR_1-134; test: NMR CSP titration; mean as printed; T111 6.82 ± 1.07, L99 5.16 ± 0.46
cToxR_1-134 [4] = biological target: T1, cToxR_1-134; test: NMR CSP titration; mean as printed; T111 14.21 ± 0.31, L99 14.78 ± 6.62
cToxR_1-134 [5] = biological target: T1, cToxR_1-134; test: NMR CSP titration; mean as printed; T111 28.26 ± 5.73, L99 27.88 ± 3.01

T1 sequence (P15795 1-134): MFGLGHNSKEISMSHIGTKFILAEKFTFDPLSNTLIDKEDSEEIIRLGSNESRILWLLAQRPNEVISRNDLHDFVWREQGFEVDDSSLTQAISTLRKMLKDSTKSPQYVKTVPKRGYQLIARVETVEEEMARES

Row | Binder | Kd (cToxR_1-134 [1]) [µM] | Kd (cToxR_1-134 [2]) [µM] | Kd (cToxR_1-134 [3]) [µM] | Kd (cToxR_1-134 [4]) [µM] | Kd (cToxR_1-134 [5]) [µM]
1 | toxT (dsDNA) DNA 1: CTCAAAAAACATAAAA DNA 2: TTTTATGTTTTTTGAG | 0.66 ± 0.1 | 0.35 | – | – | –
2 | ompU (dsDNA) DNA 1: ATTTATATCATTTTA DNA 2: TAAAATGATATAAAT | 5.49 ± 0.91 | – | 5.99 | – | –
3 | ompT (dsDNA) DNA 1: TTTTATGGTATTTGA DNA 2: TCAAATACCATAAAA | 12.8 ± 1.27 | – | – | 14.5 | –
4 | ctx (dsDNA) DNA 1: GATTTTTGATTTT DNA 2: AAAATCAAAAATC | 9.71 ± 0.84 | – | – | – | 28.1
